Data from paper PMC8079451, “Phosphopeptide interactions of the Nbs1 N-terminal FHA-BRCT1/2 domains” (Scientific Reports, 2021).
Square brackets hold non-standard residues; d marks the D form. Primed or numbered codes have the meaning given here. Ends that are not written are not given here. FITC′ = fluorescein isothiocyanate label; pT = C[C@@H](OP(=O)(O)O)[C@H](N)C(=O)O

How the values were obtained:
Experiment in all cases: fluorescence polarisation; 100 nM FITC-labeled phosphopeptide with increasing hsNbs1(384); room temperature, 15 min incubation; 25 mM HEPES pH 7.4, 150 mM NaCl, 1 mM EDTA, 2 mM DTT, 0.05% Tween20, 0.1% BSA; one-site model
Conditions in all cases: both partners purified
[1] = molecular target: T1, hsNbs1(384), the N-terminal 384 residues of homo sapiens Nbs1 containing the FHA-BRCT1-BRCT2 domains (human, UniProt O60934 1-384)
T1 construct: gene optimised for E. coli, cloned into pET30a (NdeI/HindIII); also called wt; source: E. coli BL21(DE3) pLacI, purified (Ni-NTA, HiTrap Q, Superdex 75)
T1 sequence (looked up): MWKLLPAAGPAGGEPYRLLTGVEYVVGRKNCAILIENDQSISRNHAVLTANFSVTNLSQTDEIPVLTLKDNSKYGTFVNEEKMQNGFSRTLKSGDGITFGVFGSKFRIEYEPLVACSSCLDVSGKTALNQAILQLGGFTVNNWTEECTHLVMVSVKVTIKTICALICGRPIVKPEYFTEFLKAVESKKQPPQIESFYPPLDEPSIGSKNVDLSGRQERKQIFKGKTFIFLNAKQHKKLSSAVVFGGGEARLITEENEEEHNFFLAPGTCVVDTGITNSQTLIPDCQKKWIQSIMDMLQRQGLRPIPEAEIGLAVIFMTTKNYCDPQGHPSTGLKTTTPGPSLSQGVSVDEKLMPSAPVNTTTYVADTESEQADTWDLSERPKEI

hsNbs1(384) K125A = molecular target: T2, hsNbs1(384) K125A (human, UniProt O60934 1-384, K125A)
T2 construct: source: E. coli BL21(DE3) pLacI, purified as the wild type
T2 sequence (looked up): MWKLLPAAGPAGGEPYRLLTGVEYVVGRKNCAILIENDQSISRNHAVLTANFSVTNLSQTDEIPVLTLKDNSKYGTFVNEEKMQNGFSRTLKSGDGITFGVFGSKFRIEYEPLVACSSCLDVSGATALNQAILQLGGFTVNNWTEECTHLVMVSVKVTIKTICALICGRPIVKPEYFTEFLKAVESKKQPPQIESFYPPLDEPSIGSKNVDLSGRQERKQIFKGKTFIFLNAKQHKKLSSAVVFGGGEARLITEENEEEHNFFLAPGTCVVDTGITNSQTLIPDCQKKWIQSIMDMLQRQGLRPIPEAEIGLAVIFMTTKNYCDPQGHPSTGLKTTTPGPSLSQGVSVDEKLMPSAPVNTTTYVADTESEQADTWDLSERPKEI

hsNbs1(384) K29A = molecular target: T3, hsNbs1(384) K29A (human, UniProt O60934 1-384, K29A)
T3 construct: source: E. coli BL21(DE3) pLacI, purified as the wild type
T3 sequence (looked up): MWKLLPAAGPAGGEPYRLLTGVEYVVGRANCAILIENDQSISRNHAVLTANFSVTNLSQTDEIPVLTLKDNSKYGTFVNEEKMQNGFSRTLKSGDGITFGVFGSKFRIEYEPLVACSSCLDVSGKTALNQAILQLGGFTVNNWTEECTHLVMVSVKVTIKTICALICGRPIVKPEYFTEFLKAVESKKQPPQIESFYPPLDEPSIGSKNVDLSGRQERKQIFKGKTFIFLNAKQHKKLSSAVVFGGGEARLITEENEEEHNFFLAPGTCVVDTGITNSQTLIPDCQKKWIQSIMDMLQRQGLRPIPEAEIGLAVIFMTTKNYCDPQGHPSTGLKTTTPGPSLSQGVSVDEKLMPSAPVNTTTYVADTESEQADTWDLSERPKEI

Kd [1]: 20 µM
Kd (hsNbs1(384) K125A): 39.6 µM
Kd (hsNbs1(384) K29A): 26 µM
Binder: {FITC′}-GGRYIPPN[pT]PENFWEVGFPEEQ [hsCtIP phosphopeptide R841YIPPNpTPENFWEVGFPEEQ860 with N-terminal FITC-Gly-Gly]
